Reference: patent US9415012B2, “Sustained-release composition containing peptides as active ingredient” (IPSEN PHARMA S.A.S., priority 2011, dated 2016)

Experiment: IE-HPLC analysis of rhGH deamidation before/after spray-drying
Type: physicochemical
Settings: 130° C.
Description: Recombinant human growth hormone in sodium carbonate buffer was dissolved in water. Sodium hyaluronate was present in the composition at a concentration of 2 mg/mL and rhGH at a concentration of 1 mg/mL. The weight ratio protein/sodium hyaluronate was equal to 0.5.
The composition was then spray dried with an inlet temperature of 130° C.
An ion-exchange high performance liquid chromatography (IE-HPLC) analysis was performed to evaluate the […] of rhGH and a size-exclusion chromatography high performance liquid chromatography (SEC-HPLC) analysis was performed to evaluate the aggregation of this protein.

With rhGH: recombinant human growth hormone the “Stability in the spray-drying process” value was “degraded”.
